Results published in IntAct's records for PubMed 19805289.

B1: ATP-dependent RNA helicase DBP5 (Saccharomyces cerevisiae), P20449 (parent)
chain: MSDTKRDPADLLASLKIDNEKEDTSEVSTKETVKSQPEKTADSIKPAEKLVPKVEEKKTKQEDSNLISSEYEVKVKLADIQADPNSPLYSAKSFDELGLAPELLKGIYAMKFQKPSKIQERALPLLLHNPPRNMIAQSQSGTGKTAAFSLTMLTRVNPEDASPQAICLAPSRELARQTLEVVQEMGKFTKITSQLIVPDSFEKNKQINAQVIVGTPGTVLDLMRRKLMQLQKIKIFVLDEADNMLDQQGLGDQCIRVKRFLPKDTQLVLFSATFADAVRQYAKKIVPNANTLELQTNEVNVDAIKQLYMDCKNEADKFDVLTELYGLMTIGSSIIFVATKKTANVLYGKLKSEGHEVSILHGDLQTQERDRLIDDFREGRSKVLITTNVLARGIDIPTVSMVVNYDLPTLANGQADPATYIHRIGRTGRFGRKGVAISFVHDKNSFNILSAIQKYFGDIEMTRVPTDDWDEVEKIVKKVLKD
partner: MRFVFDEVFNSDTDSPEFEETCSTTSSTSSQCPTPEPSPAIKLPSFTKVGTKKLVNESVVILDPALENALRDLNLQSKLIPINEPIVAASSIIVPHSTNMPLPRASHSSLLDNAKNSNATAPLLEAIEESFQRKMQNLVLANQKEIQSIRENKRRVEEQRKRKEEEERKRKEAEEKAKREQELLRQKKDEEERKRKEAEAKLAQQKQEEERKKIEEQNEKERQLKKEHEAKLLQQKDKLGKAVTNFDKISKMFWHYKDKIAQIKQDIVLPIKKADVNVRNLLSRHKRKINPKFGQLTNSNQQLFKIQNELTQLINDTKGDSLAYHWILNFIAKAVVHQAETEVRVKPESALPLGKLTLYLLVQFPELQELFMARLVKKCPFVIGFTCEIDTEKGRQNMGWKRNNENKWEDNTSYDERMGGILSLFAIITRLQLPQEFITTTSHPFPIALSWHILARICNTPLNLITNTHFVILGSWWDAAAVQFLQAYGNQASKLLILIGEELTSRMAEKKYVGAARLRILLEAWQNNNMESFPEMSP

Variants of: B1
Conditions: with gle1_yeast GLE1, Q12315

Variant | effect of a mutation on the interaction
E473A | decreasing interaction
E473K | disrupting interaction
T329A | decreasing interaction
E323K | disrupting interaction

Further lines, results first:

effect of a mutation on the interaction | Variant
disrupting interaction | K382E
decreasing interaction | E353K

Variants of: B1
Conditions: with gle1_yeast GLE1, Q12315
Remark: another data set of the same source

effect of a mutation on the interaction | Variant
decreasing interaction | E473K
decreasing interaction | K382E
decreasing interaction | E323K
